Measurements reported in patent US20190359711A1 (Janssen / Centocor, published 2019).

T1: rh-CD19 (UniProt P15391 20-291, limits assumed)
T1 construct: 'rh-' is not explained
T1 sequence (looked up): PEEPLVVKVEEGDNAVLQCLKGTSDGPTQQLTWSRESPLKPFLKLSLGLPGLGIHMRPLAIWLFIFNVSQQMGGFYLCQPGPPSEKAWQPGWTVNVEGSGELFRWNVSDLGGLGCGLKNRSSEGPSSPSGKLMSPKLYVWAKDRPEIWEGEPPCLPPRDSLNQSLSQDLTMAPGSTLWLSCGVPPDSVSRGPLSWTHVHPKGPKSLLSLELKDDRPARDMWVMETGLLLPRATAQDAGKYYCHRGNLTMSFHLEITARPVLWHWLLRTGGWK

T2: B-Defensin-3 (Homo sapiens (Human), UniProt P81534 23-67, not fully specified)
T2 construct: also called β-defensin
T2 peptide: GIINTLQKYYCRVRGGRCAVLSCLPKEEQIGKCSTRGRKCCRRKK


Experiments:
rh-CD19 [1] = target: T1, rh-CD19; test: SPR (Biacore 8K), antibody passed over immobilized protein
Method: (§1) Non-specific binding of the lead molecule to unrelated surfaces is determined by biosensor technology (Biacore 8K). Antibody is passed over SPR surfaces coated with unrelated proteins. […] Lead molecule is tested at the final concentration of 1 μM. Irrelevant surfaces include negatively charged protein (Soy Trypsin Inhibitor), positively charged protein (Lysozyme and β-defensin), hydrophobic (Rh-integrin a4b7), human IgG, sticky protein (Rh-CD19). Proper controls are used in this experiment. Lead is flown over two surfaces, one is a blank and the other has a molecule directly immobilized. The response unit (RU) level is determined by subtracting the blank RU from the test surface RU. The RU of TMCB150 and the parental mAbs are given below in the table. A response unit ≥100 predicts high risks for non-specific binding to charged/hydrophobic/IgG surfaces which would create challenges during manufacturing and translate to poor PK properties. None of the antibodies show non-specific binding to irrelevant surfaces predicting low to no risks for manufacturing and in-vivo behavior.

rh-Integrin a4b7 [2] = target: T3, rh-Integrin a4b7 (UniProt P13612 34-977; P26010 20-723); test: as above
T3 construct: 'rh-' is not explained
T3 sequence (P13612 34-977, chain 1 of 2): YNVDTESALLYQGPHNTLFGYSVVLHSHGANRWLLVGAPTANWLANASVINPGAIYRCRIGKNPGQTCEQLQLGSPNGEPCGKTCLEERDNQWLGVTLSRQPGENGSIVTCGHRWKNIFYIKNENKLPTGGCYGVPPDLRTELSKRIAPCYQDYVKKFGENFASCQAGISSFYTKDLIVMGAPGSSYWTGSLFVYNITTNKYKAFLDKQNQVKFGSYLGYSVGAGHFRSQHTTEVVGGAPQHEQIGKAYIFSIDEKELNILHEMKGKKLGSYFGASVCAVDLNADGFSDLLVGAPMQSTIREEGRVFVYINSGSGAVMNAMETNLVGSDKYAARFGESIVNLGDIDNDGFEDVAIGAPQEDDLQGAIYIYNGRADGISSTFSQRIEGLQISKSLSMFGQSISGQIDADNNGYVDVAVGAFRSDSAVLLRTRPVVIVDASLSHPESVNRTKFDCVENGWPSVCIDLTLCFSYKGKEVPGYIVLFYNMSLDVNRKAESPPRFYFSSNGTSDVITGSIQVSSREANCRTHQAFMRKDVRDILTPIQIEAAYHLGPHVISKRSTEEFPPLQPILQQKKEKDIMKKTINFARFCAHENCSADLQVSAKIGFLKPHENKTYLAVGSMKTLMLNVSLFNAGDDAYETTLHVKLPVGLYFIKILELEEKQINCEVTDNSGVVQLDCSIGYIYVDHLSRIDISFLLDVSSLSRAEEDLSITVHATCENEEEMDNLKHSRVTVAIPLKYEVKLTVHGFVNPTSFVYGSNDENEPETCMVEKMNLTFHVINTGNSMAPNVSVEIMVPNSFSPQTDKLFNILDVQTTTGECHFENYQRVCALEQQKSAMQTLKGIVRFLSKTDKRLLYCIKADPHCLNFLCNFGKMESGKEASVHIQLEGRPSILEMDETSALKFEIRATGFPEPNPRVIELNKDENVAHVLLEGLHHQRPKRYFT
T3 sequence (P26010 20-723, chain 2 of 2): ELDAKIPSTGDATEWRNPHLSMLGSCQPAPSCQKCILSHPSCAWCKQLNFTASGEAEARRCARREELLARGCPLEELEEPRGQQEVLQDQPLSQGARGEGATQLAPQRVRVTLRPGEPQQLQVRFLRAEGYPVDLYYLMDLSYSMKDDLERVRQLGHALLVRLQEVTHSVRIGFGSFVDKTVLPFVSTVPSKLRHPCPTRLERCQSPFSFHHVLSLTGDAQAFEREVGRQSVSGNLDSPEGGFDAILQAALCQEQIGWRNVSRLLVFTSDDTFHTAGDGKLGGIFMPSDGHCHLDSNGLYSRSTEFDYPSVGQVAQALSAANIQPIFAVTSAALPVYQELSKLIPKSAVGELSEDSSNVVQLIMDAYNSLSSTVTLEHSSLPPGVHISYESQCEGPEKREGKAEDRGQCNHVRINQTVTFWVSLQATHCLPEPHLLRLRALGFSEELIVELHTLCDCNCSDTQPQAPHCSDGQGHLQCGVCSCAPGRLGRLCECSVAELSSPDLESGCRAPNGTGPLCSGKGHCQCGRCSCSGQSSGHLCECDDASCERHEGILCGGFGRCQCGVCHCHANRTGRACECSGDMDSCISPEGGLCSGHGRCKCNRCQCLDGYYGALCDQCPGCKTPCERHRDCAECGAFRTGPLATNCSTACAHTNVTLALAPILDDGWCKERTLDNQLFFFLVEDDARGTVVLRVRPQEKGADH
Method: as §1

B-Defensin-3 [3] = target: T2, B-Defensin-3; test: as above
Method: as §1

Lysozyme = test: SPR (Biacore 8K), 1 µM antibody over immobilized protein, blank subtracted
Sequence of Lysozyme (P00698 19-147): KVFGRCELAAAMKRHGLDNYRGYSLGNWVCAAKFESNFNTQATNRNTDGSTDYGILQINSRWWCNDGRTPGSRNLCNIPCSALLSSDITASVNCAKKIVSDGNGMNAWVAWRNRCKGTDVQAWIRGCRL
Method: as §1

rh-CD19 [4] = target: T1, rh-CD19; test: as above
Method: as §1

rh-Integrin a4b7 [5] = target: T3, rh-Integrin a4b7; test: as above
Method: as §1

Human IgG = test: as above
Method: as §1

Soy Trypsin Inhibitor = target: T4, Soy Trypsin Inhibitor (soy); test: as above
T4 construct: also called STI
T4 sequence (P01070 25-205): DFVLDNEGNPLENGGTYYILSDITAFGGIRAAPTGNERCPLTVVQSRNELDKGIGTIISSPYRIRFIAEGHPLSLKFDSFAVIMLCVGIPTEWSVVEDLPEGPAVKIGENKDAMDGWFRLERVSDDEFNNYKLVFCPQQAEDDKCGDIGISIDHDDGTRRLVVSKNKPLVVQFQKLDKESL
Method: as §1

B-Defensin-3 [6] = target: T2, B-Defensin-3; test: as above
Method: as §1

| Binder | binding result (rh-CD19 [1]) | binding result (rh-Integrin a4b7 [2]) | binding result (B-Defensin-3 [3]) | response unit (RU) (Lysozyme) | response unit (RU) (rh-CD19 [4]) | response unit (RU) (rh-Integrin a4b7 [5]) | response unit (RU) (Human IgG) | response unit (RU) (Soy Trypsin Inhibitor) | response unit (RU) (B-Defensin-3 [6]) |
| --- | --- | --- | --- | --- | --- | --- | --- | --- | --- |
| CD3B376 (antibody, V domains shown, HC is IgG4 S228P, F234A, L235A, F405L, R409K; also called anti-CD3 antibody; bivalent CD3B376) VH: QVQLQQSGPRLVRPSQTLSLTCAISGDSVFNNNAAWSWIRQSPSRGLEWLGRTYYRSKWLYDYAVSVKSRITVNPDTSRNQFTLQLNSVTPEDTALYYCARGYSSSFDYWGQGTLVTVSS VL: QSALTQPASVSGSPGQSITISCTGTSSNIGTYKFVSWYQQHPDKAPKVLLYEVSKRPSGVSSRFSGSKSGNTASLTISGLQAEDQADYHCVSYAGSGTLLFGGGTKLTVLG | no binding | no binding | no binding | 0.2 | 0 | 0 | 0.4 | 19.5 | 3.1 |
| TMEB762 (antibody, human IgG4 S228P, kappa, F234A L235A, V domains shown, IgG4PAA; re-engineered variant of TMEB675 (HC R14P, P20L, H81Q; LC A1D, A91P, Kabat); Bivalent TMEFF2 parent of TMCB150; also called anti-TMEFF2 antibody; VH TMEH459) VH: EVQLLESGGGLVQPGGSLRLSCAASGFTFSSYSMSWVRQAPGKGLEWVSVISGSGGFTDYADSVKGRFTISRDNSKNTLYLQMNSLRAEDTAVYYCARMPLNSPHDYWGQGTLVTVSS VL: DIQMTQSPSSLSASVGDRVTITCRASQGIRNDLGWYQQKPGKAPKLLIYAASSLQSGVPSRFSGSGSGTDFTLTISSLQPEDFATYYCLQDYNYPLTFGGGTKVEIKR | no binding | no binding | no binding | 4.6 | 3.3 | 0 | 8.4 | 0 | 4.1 |
| TMCB150 (bispecific antibody, human IgG4 S228P, kappa, lambda, F234A L235A, made by Fab arm exchange of the parental IgG4PAA mAbs, so the chains are those of TMEB762 (HC 91, LC 92) and CD3B376 (HC 78, LC 79); also called TMEB762xCD3B376; bispecific anti-TMEFF2/CD3 antibody) heavy 1: not shown light 1: not shown heavy 2: QVQLQQSGPRLVRPSQTLSLTCAISGDSVFNNNAAWSWIRQSPSRGLEWLGRTYYRSKWLYDYAVSVKSRITVNPDTSRNQFTLQLNSVTPEDTALYYCARGYSSSFDYWGQGTLVTVSSASTKGPSVFPLAPCSRSTSESTAALGCLVKDYFPEPVTVSWNSGALTSGVHTFPAVLQSSGLYSLSSVVTVPSSSLGTKTYTCNVDHKPSNTKVDKRVESKYGPPCPPCPAPEAAGGPSVFLFPPKPKDTLMISRTPEVTCVVVDVSQEDPEVQFNWYVDGVEVHNAKTKPREEQFNSTYRVVSVLTVLHQDWLNGKEYKCKVSNKGLPSSIEKTISKAKGQPREPQVYTLPPSQEEMTKNQVSLTCLVKGFYPSDIAVEWESNGQPENNYKTTPPVLDSDGSFLLYSKLTVDKSRWQEGNVFSCSVMHEALHNHYTQKSLSLSLGK light 2: QSALTQPASVSGSPGQSITISCTGTSSNIGTYKFVSWYQQHPDKAPKVLLYEVSKRPSGVSSRFSGSKSGNTASLTISGLQAEDQADYHCVSYAGSGTLLFGGGTKLTVLGQPKAAPSVTLFPPSSEELQANKATLVCLISDFYPGAVTVAWKADSSPVKAGVETTTPSKQSNNKYAASSYLSLTPEQWKSHRSYSCQVTHEGSTVEKTVAPTECS | no binding | no binding | no binding | 4.2 | 3.4 | 0 | 7.5 | 1.6 | 6.4 |
